Results as given in patent publication US20200247885A1.

Biological target: murine P2X purinoceptor 4 (Q9JJX6) (mouse) (UniProt Q9JJX6)
Test: cell-based or functional assay

UniProt Q9JJX6, sequence (Q9JJX6 whole entry, form in doubt): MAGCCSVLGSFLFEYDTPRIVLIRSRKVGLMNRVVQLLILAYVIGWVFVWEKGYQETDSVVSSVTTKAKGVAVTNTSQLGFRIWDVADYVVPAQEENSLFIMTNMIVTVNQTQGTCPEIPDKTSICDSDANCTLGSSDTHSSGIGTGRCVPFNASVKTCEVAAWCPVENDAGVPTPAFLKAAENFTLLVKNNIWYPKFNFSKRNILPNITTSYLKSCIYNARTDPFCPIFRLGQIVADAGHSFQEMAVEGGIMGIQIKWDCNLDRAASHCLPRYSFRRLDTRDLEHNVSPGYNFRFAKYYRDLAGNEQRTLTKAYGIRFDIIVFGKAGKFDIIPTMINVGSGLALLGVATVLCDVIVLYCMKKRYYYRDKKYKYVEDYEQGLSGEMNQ

In the case of hIgG1 NIP 228 TM (antibody), the fraction of control current (fraction of control current) is reported as 1.08.
